In patent US20090325867A1, “RECEPTOR-SPECIFIC TUMOUR NECROSIS FACTOR-RELATED APOPTOSIS-INDUCING LIGAND (TRAIL) VARIANTS” (MEDICAL RESEARCH COUNCIL, priority 2005, published 2009):
Blank lines part the entries; values can stand above or below the molecule they belong to.

Assays:
[1] = molecular target: TRAIL receptor 2 (TRAIL-R2) (Homo sapiens (Human)) (UniProt O14763)
[2] = test system: TRAIL DISC in Ramos cells; experiment: DISC analysis with biotinylated TRAIL in Ramos cells; assay type: cell-based; conditions: biotinylated ligand 500 ng ml^−1, 30 min
Procedure: (§1) After exposure of the cells for 30 min, DISC complexes were isolated and analyzed for the indicated proteins by Western blotting. To provide an unstimulated receptor control (u/s), biotinylated wt or mutant TRAIL was added to lysate from untreated cells. C: Freshly isolated cells from patients with CLL were incubated for 16 h either alone or in the presence of depsipeptide (10 nM). […] The different symbols used indicate data from six individual patients and the solid line indicates the Mean.
(§2) Ramos or Jurkat cells (5×10^7 cells per treatment) were exposed to biotin-tagged recombinant His-TRAIL (biotinylated TRAIL) or one of its mutant forms (500 ng ml^−1) for 30 min and then DISC formation assessed as described previously (MacFarlane et al., 2002 ibid.).

[3] = test system: TRAIL DISC in Jurkat cells; experiment: DISC analysis with biotinylated TRAIL in Jurkat cells; assay type: cell-based; conditions: biotinylated ligand 500 ng ml^−1, 30 min
Procedure: as §1, §2

TRAIL-R1 (DR4) = molecular target: T1, TRAIL-R1 (DR4) (Homo sapiens, UniProt O00220); experiment: TRAIL-R1 selective apoptotic signalling (Ramos versus Jurkat cells); assay type: cell-based; conditions: from apoptosis in Ramos (TRAIL-R1) and Jurkat (TRAIL-R2) cells
T1 construct: Ramos and Jurkat cells, which signal predominantly through TRAIL-R1 and TRAIL-R2, respectively; endogenous in cells; host or cells: Ramos cells (Jurkat cells as TRAIL-R2 comparison)
Description: Another test involves the assay of the effect in R1- (DR4-) only cells. This is the preferred test for DR4 selectivity as discussed herein. Preferably the ligand is applied to an R1-only signalling cell. Preferably the cell is a Ramos cell. Preferably the read-out is functional activity, preferably death-inducing activity (apoptosis). This is crucial to the test—mere binding is not as robust an indicator as functional induction of death. Thus, preferably a DR4 selective ligand according to the present invention induces death in a DR4 only signalling cell, such as a Ramos cell.
Ramos, an Epstein-Barr virus-negative Burkitt's lymphoma cell line, and Jurkat T cells (clone E6-1) were cultured as described (MacFarlane et al (2005 Cell Death and Differentiation vol 12 pages 773-782)). Blood samples were obtained from CLL patients, with patient consent and local ethical committee approval and CLL cells purified as described (MacFarlane et al (2002 Oncogene 21, 6809-6818). Cells were incubated for 16 h with depsipeptide (10 nM), provided by Dr. E. Sausville (NCI, USA). Cells were then cultured for a further 6 h with either HGSETR1 or HGS-ETR2, agonistic mAbs to TRAIL-R1 or -R2, respectively (Human Genome Sciences, Rockville, Md.), His-TRAIL-LE (a recombinant TRAIL with low endotoxin—Alexis Corporation, Nottingham, UK), His-TRAIL, a similar form of human recombinant TRAIL (MacFarlane et al (1997 J Biol Chem 272, 25417-25420)) but not further purified to reduce endotoxin levels or a mutant form of His-TRAIL as described (MacFarlane et al., 2005 ibid.). Cell lines were also pre-incubated for 30 min with a TRAIL-R1 blocking Ab and a TRAIL-R2 neutralizing Ab from Alexis and R&D systems, respectively, prior to exposure to TRAIL. Freshly isolated cells from patients with MCL were isolated, purified and incubated with different forms of TRAIL as described above for CLL cells. Samples were either analyzed immediately for apoptosis or stored at −80° C. for subsequent Western blotting. Other methods and reagents were as described (Inoue (2004 Cell Death Differ 11 Suppl 2, S193-206); MacFarlane et al., 2005 ibid).
Apoptosis was quantified by phosphatidylserine (PS) externalization in the presence of propidium iodide as described (MacFarlane et al., 2002 ibid.). Samples for Western blot analysis were prepared and caspase processing detected as described (Inoue et al., 2004 ibid.; MacFarlane et al., 2005 ibid.).
Referring to FIG. 4: Ramos cells (A) and Jurkat cells (B) were cultured with increasing concentrations of Arg191Leu or Asn199Val single mutants of His-TRAIL ([…]) or His-TRAIL (500 ng/ml), ETR1 or ETR2 (1000 ng/ml) for 4 h. Apoptosis was quantified by measuring the % PS+ cells and results shown in FIG. 4 are the Mean±SEM of three independent experiments. Thus the biological importance TRAIL residues R191 and N199 in TRAIL-R1 selectivity is shown.

[4] = molecular target: T2, MCF-7 cells (Homo sapiens); experiment: TRAIL DISC activation in MCF-7 cells; assay type: cell-based; conditions: FIG. 5B
T2 construct: the breast tumour cell line MCF-7 signals to apoptosis via TRAIL-R1; endogenous in cells; host or cells: MCF-7 (clone F43)
Procedure: Ramos and Jurkat T cells (clone E6-1) were cultured as described (MacFarlane et al, 2005 ibid.). The breast tumour cell line, MCF-7 (clone F43) was cultured as described previously (MacFarlane et al., 2000 J. Cell Biol. 148, 1239-1254). Cells were cultured for either 4 h (Ramos and Jurkat) or 6 h (MCF-7) with His-TRAIL (MacFarlane et al, 1997 J Biol Chem 272, 25417-25420), HGS-ETR1 or HGS-ETR2 (Human Genome Sciences), or a mutant form of His-TRAIL (MacFarlane et al, 2005 ibid.). Samples were analyzed for apoptosis, Western blotting, or TRAIL DISC activation as described (MacFarlane et al, 2005 ibid.; MacFarlane et al. 2002 Oncogene 21, 6809-6818). Mutants of His-TRAIL (residues 95-281) were generated using the Quik-Change site-directed mutagenesis kit (Stratagene, Calif.), confirmed by DNA sequencing, expressed in E. coli and purified as described (MacFarlane et al, 1997 ibid.). […] After 40 h of transfection the cells were collected and total TRAIL-R1 or TRAIL-R2 levels assessed. Where indicated, RNAi transfected MCF-7 cells were either left untreated or exposed to wt-TRAIL and apoptosis assessed by the extent of Bax activation, determined using the conformation specific Bax MAb, clone 3 (Dewson et al, 2003 Oncogene vol 22 pp 2643-54).
Apoptosis was quantified by measuring the processing of Caspase-8, Caspase-7 and PARP by Western blot analysis. […]

- apoptosis of primary MCL cells after depsipeptide (5 nM, 16 h) [1]: 38.3%
B1: HGS-ETR2 (antibody, INN chains, looked up, V domains shown)
VH: EVQLVQSGGGVERPGGSLRLSCAASGFTFDDYGMSWVRQAPGKGLEWVSGINWNGGSTGYADSVKGRVTISRDNAKNSLYLQMNSLRAEDTAVYYCAKILGAGRGWYFDLWGKGTTVTVSS
VL: SSELTQDPAVSVALGQTVRITCQGDSLRSYYASWYQQKPGQAPVLVIYGKNNRPSGIPDRFSGSSSGNTASLTITGAQAEDEADYYCNSRDSSGNHVVFGGGTKLTVL

- receptor selectivity of apoptotic activity (in words) (TRAIL-R1 (DR4)): R1 selective apoptotic activity
B2: TRAIL.R1-5: 6His TRAIL 95-281 with 193Ser, 199Val, 201Arg, 213Trp and 215Asp (protein)
chain: TSEETISTVQEKQQNISPLVRERGPQRVAAHITGTRGRSNTLSSPNSKNEKALGRKINSWESSRSGHSFLSNLHLRNGELVIHEKGFYYIYSQTYFRFSEEIKEVTRNDKQMVQYIYKWTDYPDPILLMKSARNSCWSKDAEYGLYSIYQGGIFELKENDRIFVSVTNEHLIDMDHEASFFGAFLVG
modifications: biotin (site not stated) in the DISC analysis only; not biotinylated in the apoptosis assays
notes: 6His TRAIL 95-281 with 193Ser, 199Val, 201Arg, 213Trp and 215Asp
- DISC formation: receptor bound, FADD and caspase-8 recruitment [2]: bound predominantly TRAIL-R1 together with a small amount of TRAIL-R2
- DISC formation: receptor bound, FADD and caspase-8 recruitment [3]: bound small amounts of both TRAIL-R1 and -R2
- recruitment and processing of Caspase-8 at the DISC [4]: resulted in recruitment and processing Caspase-8 at the DISC
